{
  "source": "paper PMC3926839",
  "about": "“Evaluation of Zinc (II) chelators for inhibiting p53-mediated apoptosis”",
  "binders": {"B1": {"name": "p53 consensus probe (dsDNA)", "DNA 1": "GGACATGCCCGGGCATGTCC", "DNA 2": "GGACATGCCCGGGCATGTCC"}},
  "target": "FLAG-p53 (UniProt P04637 1-393)",
  "sequence (P04637 whole entry)": "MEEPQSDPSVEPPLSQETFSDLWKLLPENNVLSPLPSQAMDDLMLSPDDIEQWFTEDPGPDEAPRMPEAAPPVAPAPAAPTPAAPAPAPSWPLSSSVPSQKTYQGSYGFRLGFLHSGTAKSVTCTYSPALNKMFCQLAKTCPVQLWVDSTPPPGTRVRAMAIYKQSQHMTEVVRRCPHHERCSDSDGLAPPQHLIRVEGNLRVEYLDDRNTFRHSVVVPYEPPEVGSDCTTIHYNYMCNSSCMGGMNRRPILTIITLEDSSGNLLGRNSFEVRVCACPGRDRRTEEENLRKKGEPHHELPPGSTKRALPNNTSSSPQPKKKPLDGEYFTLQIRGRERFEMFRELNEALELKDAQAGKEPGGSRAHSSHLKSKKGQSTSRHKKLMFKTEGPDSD",
  "experiment": "EMSA; BPA (Zn(II) chelator) preincubated; no inhibition; FLAG-p53 12.5 nM; 10 mM Tris-HCl pH 7.4, 2.5 mM DTT, 0.05% NP-40; 10 min preincubation with chelator at 37 °C, then 3 h with probe at 37 °C; electrophoresis at",
  "settings": "protein: recombinant; tags: FLAG; chain copies: 4; label: FITC; blunt (only the sense strand is printed; it is self-complementary)",
  "data": [
    {"binder": "B1", "values": [
      {"measurement": "binding result", "value": "binds"}
    ]}
  ]
}
